In CN108840930A (SHENGYAN MEDICINE TECH WUHAN CO LTD, dated 2018):

Molecular target: 抗体-Fc融合蛋白scFv-3B5-Fc (anti-human CD19 scFv 3B5 fused to human IgG1 Fc) (human, UniProt P01857 99-330 = IgG part)
Assay: concentration-gradient ELISA, Fc-CD19 coated at 100 ng/well, goat anti-human-HRP detection, nonlinear fit (b = KD)

B1: 人Fc-CD19重组蛋白 (recombinant human Fc-CD19, bought from Acrobiosystems) (Fc fusion, UniProt P15391 20-291, looked up)
chain: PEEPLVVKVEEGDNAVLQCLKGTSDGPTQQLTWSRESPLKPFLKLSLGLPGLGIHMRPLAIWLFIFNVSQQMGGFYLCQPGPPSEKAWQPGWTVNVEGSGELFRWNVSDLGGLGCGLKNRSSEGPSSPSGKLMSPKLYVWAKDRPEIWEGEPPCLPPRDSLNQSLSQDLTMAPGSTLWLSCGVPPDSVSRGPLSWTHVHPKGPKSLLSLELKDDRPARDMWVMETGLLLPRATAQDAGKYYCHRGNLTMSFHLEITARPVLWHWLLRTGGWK
notes: Bought reagent; the order here follows the printed name Fc-CD19; also called Fc-CD19重组抗原; 重组人CD19抗原; not shown: Fc part of the bought Fc-CD19 fusion
B1 gave a Kd of 0.475 nM.
